In assay [1] the target is T1, cynomolgus monkey SIRPγ on CHO cells (cynomolgus monkey, UniProt Q9P1W8 29-386 (human entry)).
T1 construct: also called Cyno SIRPγ CHO
T1 chain: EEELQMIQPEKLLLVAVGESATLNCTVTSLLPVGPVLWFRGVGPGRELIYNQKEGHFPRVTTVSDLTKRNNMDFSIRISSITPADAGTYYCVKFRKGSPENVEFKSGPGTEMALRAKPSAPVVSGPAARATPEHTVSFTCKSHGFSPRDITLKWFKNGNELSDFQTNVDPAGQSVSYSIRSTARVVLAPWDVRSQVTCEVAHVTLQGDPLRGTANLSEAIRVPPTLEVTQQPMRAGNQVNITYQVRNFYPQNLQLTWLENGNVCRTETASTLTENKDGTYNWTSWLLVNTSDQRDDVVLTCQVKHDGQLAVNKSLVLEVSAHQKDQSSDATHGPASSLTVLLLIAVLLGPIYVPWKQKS
The experiment in a line: flow cytometry, CHO transfectants, anti-human IgG. A digest of the protocol:
(§1)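 Read-out is median fluorescence intensity for each antibody concentration, measured after a titration series is bound to stably transfected CHO cells and stained with labelled anti-human IgG. The scFv data come from myc-tagged crude PPE, also run on parental CHO-K1, where fold change below 2.0 denotes no binding.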

Assay [2] concerns the target T2, cynomolgus monkey SIRPα on CHO cells (cynomolgus monkey, UniProt A0A2K5VYQ9 31-507).
T2 construct: whole, on cells; also called Cyno SIRPα CHO
T2 sequence: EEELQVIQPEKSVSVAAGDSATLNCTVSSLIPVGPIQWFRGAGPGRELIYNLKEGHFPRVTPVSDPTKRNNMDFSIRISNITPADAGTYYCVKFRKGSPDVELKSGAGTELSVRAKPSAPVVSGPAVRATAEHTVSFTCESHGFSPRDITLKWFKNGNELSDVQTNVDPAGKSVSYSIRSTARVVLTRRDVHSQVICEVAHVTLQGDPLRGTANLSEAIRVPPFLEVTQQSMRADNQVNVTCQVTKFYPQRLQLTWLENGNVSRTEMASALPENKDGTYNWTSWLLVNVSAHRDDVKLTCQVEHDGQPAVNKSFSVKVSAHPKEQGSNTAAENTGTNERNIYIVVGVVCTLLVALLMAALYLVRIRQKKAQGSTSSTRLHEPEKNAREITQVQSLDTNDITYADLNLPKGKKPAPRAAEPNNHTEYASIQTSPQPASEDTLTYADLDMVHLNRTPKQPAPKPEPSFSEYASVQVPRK
In words: flow cytometry, CHO transfectants, anti-human IgG. A digest of the protocol:
as §1

Assay [3] has as its target T3, human SIRPβ1 on CHO cells (co-transfected with DAP12) (human, UniProt O00241 30-398).
T3 construct: whole, on cells; co-transfected with DAP12; also called Human SIRPβ1 CHO
In words: flow cytometry, CHO transfectants, anti-human IgG. A digest of the protocol:
as §1

Assay [4] deals with T4, human SIRPγ on stably transfected CHO cells (human, UniProt Q9P1W8 29-387).
T4 construct: also called Human SIRPγ CHO
T4 sequence (Q9P1W8 29-387 limits assumed): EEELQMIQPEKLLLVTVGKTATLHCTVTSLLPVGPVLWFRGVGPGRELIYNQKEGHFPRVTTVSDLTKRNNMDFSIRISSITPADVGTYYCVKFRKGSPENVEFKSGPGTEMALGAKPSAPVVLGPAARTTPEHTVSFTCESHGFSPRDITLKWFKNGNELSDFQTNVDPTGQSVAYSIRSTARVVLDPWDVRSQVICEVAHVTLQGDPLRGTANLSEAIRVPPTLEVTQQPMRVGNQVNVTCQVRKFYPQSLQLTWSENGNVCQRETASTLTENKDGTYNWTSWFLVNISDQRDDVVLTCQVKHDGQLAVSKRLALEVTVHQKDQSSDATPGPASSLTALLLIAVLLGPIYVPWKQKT
In words: flow cytometry, CHO transfectants, anti-human IgG. A digest of the protocol:
as §1

Assay [5] deals with T5, Cynomolgus Monkey SIRPγ (plate-coated extracellular domain).
T5 construct: also called Cyno SIRPγ
T5 extracellular domain: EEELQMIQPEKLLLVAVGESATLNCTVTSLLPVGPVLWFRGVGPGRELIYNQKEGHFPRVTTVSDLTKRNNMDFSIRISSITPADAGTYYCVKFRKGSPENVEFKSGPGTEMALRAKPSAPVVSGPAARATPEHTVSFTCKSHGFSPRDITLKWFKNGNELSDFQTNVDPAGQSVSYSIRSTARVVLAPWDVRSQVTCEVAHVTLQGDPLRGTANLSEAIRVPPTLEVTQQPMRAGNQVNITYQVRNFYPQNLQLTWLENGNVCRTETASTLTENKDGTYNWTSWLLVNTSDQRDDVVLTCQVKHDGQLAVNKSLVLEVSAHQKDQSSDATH
The experiment in a line: ELISA, coated SIRP ECD (2 µg/mL), anti-human IgG, luminescence. In outline: (§2)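 Plate-coated SIRP extracellular domain (2 μg/mL), blocked, then exposed to purified antibodies in titration, after transient expression in Expi293F cells for 5 days and Protein A purification. Bound antibody is detected with anti-human IgG and a chemiluminescent substrate, and reported as relative luminescence units.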

Assay [6] deals with T6, extracellular binding domain of human SIRPγ (plate-coated) (human, UniProt Q9P1W8 29-360).
T6 construct: also called hSIRPγ
T6 sequence (Q9P1W8 29-360 limits assumed): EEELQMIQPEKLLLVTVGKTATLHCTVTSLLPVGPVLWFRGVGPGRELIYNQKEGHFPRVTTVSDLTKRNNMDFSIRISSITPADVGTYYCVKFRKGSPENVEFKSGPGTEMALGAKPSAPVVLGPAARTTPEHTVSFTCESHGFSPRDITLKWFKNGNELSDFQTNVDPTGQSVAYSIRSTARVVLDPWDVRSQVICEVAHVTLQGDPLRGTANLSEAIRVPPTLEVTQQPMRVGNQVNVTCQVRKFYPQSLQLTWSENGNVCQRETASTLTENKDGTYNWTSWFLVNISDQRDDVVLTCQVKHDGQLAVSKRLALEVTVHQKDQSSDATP
The description is as above. In outline: as §2

The target in assay [7] is T7, cynomolgus monkey SIRPγ-His monomer protein (cynomolgus monkey, UniProt Q9P1W8 29-359 (human entry), limits assumed).
T7 construct: also called Cyno SIRPγ; Cyno SIRPγ-His
T7 chain: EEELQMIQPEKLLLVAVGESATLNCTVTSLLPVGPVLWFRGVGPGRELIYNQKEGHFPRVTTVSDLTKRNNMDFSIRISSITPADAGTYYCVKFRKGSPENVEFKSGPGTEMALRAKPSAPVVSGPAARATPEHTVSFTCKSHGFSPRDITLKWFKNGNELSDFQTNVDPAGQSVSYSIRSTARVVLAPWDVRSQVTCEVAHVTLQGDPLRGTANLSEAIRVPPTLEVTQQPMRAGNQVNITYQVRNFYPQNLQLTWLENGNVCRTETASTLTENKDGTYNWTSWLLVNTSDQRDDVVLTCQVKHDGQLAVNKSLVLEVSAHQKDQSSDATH
In words: BLI Octet, antibody on AHC, global 1:2 model. The method, then: (§3) Antibodies were coated onto anti-human Fc capture (AHC) biosensors. SIRP-His monomer protein or bivalent SIRP protein with mouse Fc at four concentrations (200 nM, 100 nM, 50 nM, 25 nM) were exposed to the biosensor to measure on-rate kinetics of SIRP antibodies binding to SIRP protein. The biosensors were then exposed to wash buffer to measure off-rate kinetics. The resulting kinetic data were analyzed and fitted using a global 1:2 binding model.

The target of assay [8] is T8, human SIRPγ-His monomer protein (human, UniProt Q9P1W8 29-360).
T8 construct: also called hSIRPγ
T8 sequence (Q9P1W8 29-360 limits assumed): as the sequence (Q9P1W8 29-360 limits assumed) above
The experiment in a line: BLI Octet, antibody on AHC, global 1:2 model. The procedure:
as §3

For assay [9], the target named is T9, bivalent human SIRPγ protein with mouse Fc (human, UniProt Q9P1W8 29-360).
T9 construct: also called Human SIRPγ-mFc
T9 sequence (Q9P1W8 29-360 limits assumed): as the sequence (Q9P1W8 29-360 limits assumed) above
The experiment in a line: BLI Octet, antibody on AHC, global 1:2 model. The method, then: as §3

For assay [10], the target named is T6, extracellular binding domain of human …. In words: competition ELISA, coated SIRPγ ECD, antibody 1 h then 10 µg/mL biotinylated CD47-Fc (blocked ligand), streptavidin-HRP. The method, then: To carry out the competition experiment, the extracellular binding domain of SIRPγ was coated onto a high protein-binding plate and blocked. A titration of each SIRPγ antibody was incubated on the plate for 1 hour. […] Following a wash, streptavidin-HRP was added. The plate was washed again and developed using a chemiluminescent substrate. The plate was read on a plate reader to assess luminescence. […] A known blocker antibody was used as a positive control.

T3 sequence (O00241 30-398): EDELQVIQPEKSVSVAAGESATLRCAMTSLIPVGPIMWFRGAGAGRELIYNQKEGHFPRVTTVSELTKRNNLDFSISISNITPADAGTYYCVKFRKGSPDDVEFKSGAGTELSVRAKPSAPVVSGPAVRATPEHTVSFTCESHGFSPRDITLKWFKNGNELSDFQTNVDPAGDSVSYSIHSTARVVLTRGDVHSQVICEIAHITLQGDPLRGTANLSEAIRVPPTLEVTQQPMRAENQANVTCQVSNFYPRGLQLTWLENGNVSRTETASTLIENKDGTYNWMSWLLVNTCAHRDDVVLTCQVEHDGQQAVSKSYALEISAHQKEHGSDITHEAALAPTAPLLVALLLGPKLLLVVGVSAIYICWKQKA

B1: Antibody 80 (antibody, V domains shown)
VH: QVQLVQSGAEVKKPGASVKVSCKASGYTFTRYDINWVRQAPGQGLEWMGWMNPNSGNTGYAQKLQGRVTMTRDTSTSTVYMELSSLRSEDTAVYYCARERVGYCSSTSCLHPLDYWGQGTLVTVSS
VL: DIQMTQSPSSLSASVGDRVTITCRASQGIRNDLGWYQQKPGKAPKLLIYSASNLQSGVPSRFSGSGSGTDFTLTISSLQPEDFATYYCQQSYDVPLTFGGGTKVEIK
Turning to B1, the “EC50 (read off the curve)” value was ~0.7 µg/mL in [1], ~0.2 µg/mL in assay [4], ~0.05 µg/mL in assay [5] and ~0.02 µg/mL in [6]. The binding result in assay [2] and in [3] was “no binding (tested: about 20 µg/mL)” throughout.

B2: Antibody 96 (antibody, V domains shown)
VH: QVQLVQSGAEVKKPGASVKVSCKASGYTFTRYDINWVRQAPGQGLEWMGWMNPNSGNTGYAQKLQGRVTMTRDTSTSTVYMELSSLRSEDTAVYYCARERVGYCSSTSCLHPLDYWGQGTLVTVSS
VL: DIQMTQSPSSLSASVGDRVTITCRASQGIRNDLGWYQQKPGKAPKLLIYSASNLQSGVPSRFSGSGSGTDFTLTISSLQPEDFATYYCQQSYDVPLTFGGGTKVEIK
Regarding B2, the half-maximal effective concentration (EC50 (read off the curve)) in [1] was ~0.6 µg/mL; in assay [4] it was ~0.4 µg/mL. In addition, the binding result in assay [2] and in assay [3] was “no binding (tested: about 30 µg/mL)” throughout. Further, the Kd in assay [7] stood at 211 nM; in assay [8] it was 70.3 nM; in assay [9], 21.5 nM.

B3: Antibody 97 (antibody, V domains shown)
VH: QVQLVQSGAEVKKPGASVKVSCKASGHTFNNNYIHWVRQAPGQGLEWMGIINPSGGSTSYAQKFQGRVTMTRDTSTSTVYMELSSLRSEDTAVYYCARQIQDYGYYYYGMDVWGQGTTVTVSS
VL: EIVMTQSPATLSVSPGERATLSCRASQSVSKYLAWYQQKPGQAPRLLIYAISARAAGIPARFSGSGSGTEFTLTISSLQSEDFAVYYCQQYYSSPPTFGQGTKVEIK
Regarding B3, the “IC50 (read off the curve)” value in assay [10] is ~0.3 µg/mL. The binding result in [2] and in [3] was “no binding (tested: about 30 µg/mL)” in each case. Besides, the Kd worked out at 16.3 nM in assay [7], 362 nM in assay [8] and 48.4 nM in assay [9].

B4: Antibody 83 (antibody, V domains shown)
VH: QVQLVQSGAEVKKPGASVKVSCKASGYSFSDYYMHWVRQAPGQGLEWMGWMSPNSGNTGYAQKFQGRVTMTRDTSTSTVYMELSSLRSEDTAVYYCARQREEYGHYYYGMDVWGQGTMVTVSS
VL: EIVMTQSPATLSVSPGERATLSCRASQSLGSTYLAWYQQKPGQAPRLLIYGASTRATGIPARFSGSGSGTEFTLTISSLQSEDFAVYYCQQYYSSPPTFGQGTKVEIK
Regarding B4, in assay [10], the “IC50 (read off the curve)” value is ~0.2 µg/mL. In addition, the binding result in assay [2] and in [3] was “no binding (tested: about 30 µg/mL)” throughout. The Kd amounted to 11.7 nM in assay [7], 174 nM in assay [8] and 53.2 nM in assay [9].

B5: Antibody 94 (antibody, V domains shown)
VH: QVQLVQSGAEVKKPGASVKVSCKASGYTFTSYGISWVRQAPGQGLEWMGWISAYNGNTNYAQKFQGRVTMTRDTSTSTVYMELSSLRSEDTAVYYCARGTYYDYIWGSYRYSWFDYWGQGTLVTVSS
VL: not shown
In the case of B5, the “IC50 (read off the curve)” value in assay [10] was ~0.2 µg/mL. The binding result in assay [2] and in assay [3] was “no binding (tested: about 30 µg/mL)” each time. For the same molecule, the Kd in assay [7] was 42.6 nM; in assay [8], 30.1 nM; in assay [9], 80.2 nM.

B6: Antibody 95 (antibody, V domains shown)
VH: QVQLVQSGAEVKKPGASVKVSCKASGYTFTSYYMHWVRQAPGQGLEWMGWMNPNSGNTGYAQKFQGRVTMTRDTSTSTVYMELSSLRSEDTAVYYCARDQMYSSYGMDVWGQGTTVTVSS
VL: DIQMTQSPSSLSASVGDRVTITCRASESITNWLAWYQQKPGKAPKLLIYKASSLESGVPSRFSGSGSGTDFTLTISSLQPEDFATYYCQQSYGTPYTFGQGTKVEIK
For B6, the “IC50 (read off the curve)” value in assay [10] is ~1 µg/mL. In addition, the binding result in assay [2] and in assay [3] was “no binding (tested: about 30 µg/mL)” each time. Also, the Kd in assay [7] came to 40.3 nM; in [8] it was 193 nM; in assay [9], 1280 nM. Also, the “EC50 (read off the curve)” value in [6] was ~0.07 µg/mL.

B7: Antibody 90 (antibody, V domains shown)
VH: QVQLVQSGAEVKKPGASVKVSCKASGYTFTSYYMHWVRQAPGQGLEWMGWMNPNSDNTGYAQKFQGRVTMTRDTSTSTVYMELSSLRSEDTAVYYCARVGVGYGYYYYGMDVWGQGTTVTVSS
VL: DIQMTQSPSSLSASVGDRVTITCRAGQSIGDYLNWYQQKPGKAPKLLIYAASSLQSGVPSRFSGSGSGTDFTLTISSLQPEDFATYYCQQSYSTPWTFGQGTKVEIK
In the case of B7, in [10], the “IC50 (read off the curve)” value is ~0.2 µg/mL. For the same molecule, the binding result in assay [2] and in [3] was “no binding (tested: about 30 µg/mL)” in each case. For the same molecule, the Kd in [7] stood at 69.2 nM; in assay [8] it was 175 nM; in [9], 87.6 nM.

B8: Antibody 60 (antibody, V domains shown)
VH: EVQLLESGGGLVQPGGSLRLSCAASGFTLGSYWMHWVRQAPGKGLEWVSLISWDGGSTYYADSVKGRFTISRDNSKNTLYLQMNSLRAEDTAVYYCAKGPWVGYSGYDLNYYYYGMDVWGQGTTVTVSS
VL: DIQMTQSPSSLSASVGDRVTITCRASQDIRRALAWYQQKPGKAPKLLIYAASSLQSGVPSRFSGSGSGTDFTLTISSLQPEDFATYYCLQHNSYPPTFGQGTKLEIK
Take B8: the concentration giving a half-maximal response (EC50 (read off the curve)) in assay [1] was ~0.7 µg/mL; in assay [4], ~0.9 µg/mL; in assay [5] it was ~0.03 µg/mL; in assay [6], ~0.02 µg/mL. Moreover, the binding result in assay [2] and in [3] was “no binding (tested: about 20 µg/mL)” each time.

The values are drawn from patent US20240400677A1 (ELECTRA THERAPEUTICS, published 2024).
